Measurements reported in publication PMC4330389, “Domain organization within the nuclear export factor Mex67:Mtr2 generates an extended mRNA binding surface”.

Tests used:
Assay in all cases: fluorescence anisotropy; 20 mM Tris pH 8.0, 50 mM NaCl, 10 nM DY-547 RNA; temperature not stated
Mex67RRM-LRR = biological target: T1, Mex67RRM-LRR (Saccharomyces cerevisiae, UniProt Q99257 2-262); settings: protein: recombinant; tags: His6 removed by TEV
T1 sequence: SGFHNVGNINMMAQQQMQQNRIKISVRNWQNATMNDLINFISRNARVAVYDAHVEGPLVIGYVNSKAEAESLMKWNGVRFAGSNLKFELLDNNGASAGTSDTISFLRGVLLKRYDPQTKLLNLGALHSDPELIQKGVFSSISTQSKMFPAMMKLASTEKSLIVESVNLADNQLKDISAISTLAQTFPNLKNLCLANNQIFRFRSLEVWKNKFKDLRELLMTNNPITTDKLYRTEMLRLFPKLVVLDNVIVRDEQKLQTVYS

[1] = biological target: T2, Mex67ΔUBA L263D+M265D;Mtr2 (Saccharomyces cerevisiae;Saccharomyces …, UniProt Q99257;P34232 1-487;1-184, L263D;M265D|); settings: protein: recombinant;recombinant; tags: His6 removed by TEV;; copies: 1;1
T2 sequence 1: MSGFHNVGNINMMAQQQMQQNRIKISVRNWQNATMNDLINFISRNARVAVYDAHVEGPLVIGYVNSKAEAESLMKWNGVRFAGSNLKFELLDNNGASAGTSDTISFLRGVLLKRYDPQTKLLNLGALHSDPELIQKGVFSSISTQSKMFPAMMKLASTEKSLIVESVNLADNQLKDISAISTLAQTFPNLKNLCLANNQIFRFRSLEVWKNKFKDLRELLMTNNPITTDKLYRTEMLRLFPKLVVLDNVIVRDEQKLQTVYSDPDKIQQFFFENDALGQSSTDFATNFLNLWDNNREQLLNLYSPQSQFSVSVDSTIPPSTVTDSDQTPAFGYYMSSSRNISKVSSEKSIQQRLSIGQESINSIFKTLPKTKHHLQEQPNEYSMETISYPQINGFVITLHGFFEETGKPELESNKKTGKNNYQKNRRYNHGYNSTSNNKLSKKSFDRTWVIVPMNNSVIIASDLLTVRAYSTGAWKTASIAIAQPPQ
T2 sequence 2: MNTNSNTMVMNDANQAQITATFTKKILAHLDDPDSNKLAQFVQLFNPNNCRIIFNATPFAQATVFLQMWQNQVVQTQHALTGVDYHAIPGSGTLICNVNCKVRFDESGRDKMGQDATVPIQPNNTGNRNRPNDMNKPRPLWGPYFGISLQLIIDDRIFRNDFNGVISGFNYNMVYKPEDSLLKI

Mex67NTF2L;Mtr2 = biological target: T3, Mex67NTF2L;Mtr2 (Saccharomyces cerevisiae;Saccharomyces …, UniProt Q99257;P34232 264-487;1-184, |); settings: protein: recombinant;recombinant; tags: His6 removed by TEV;; copies: 1;1
T3 sequence 1: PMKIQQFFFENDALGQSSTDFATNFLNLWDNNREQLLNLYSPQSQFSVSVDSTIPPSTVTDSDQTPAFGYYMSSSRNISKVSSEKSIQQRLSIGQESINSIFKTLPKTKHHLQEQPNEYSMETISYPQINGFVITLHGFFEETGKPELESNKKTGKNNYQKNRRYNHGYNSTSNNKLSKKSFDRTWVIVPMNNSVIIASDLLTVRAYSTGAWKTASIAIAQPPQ
T3 sequence 2: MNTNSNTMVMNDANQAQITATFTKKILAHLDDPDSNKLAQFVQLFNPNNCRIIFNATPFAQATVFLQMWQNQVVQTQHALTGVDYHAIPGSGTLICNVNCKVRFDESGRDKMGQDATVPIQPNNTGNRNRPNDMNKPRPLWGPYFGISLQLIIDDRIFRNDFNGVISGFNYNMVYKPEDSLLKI

Mex67ΔUBA;Mtr2 = biological target: T4, Mex67ΔUBA;Mtr2 (Saccharomyces cerevisiae;Saccharomyces …, UniProt Q99257;P34232 1-487;1-184, |); settings: protein: recombinant;recombinant; tags: His6 removed by TEV;; copies: 1;1
T4 sequence 1: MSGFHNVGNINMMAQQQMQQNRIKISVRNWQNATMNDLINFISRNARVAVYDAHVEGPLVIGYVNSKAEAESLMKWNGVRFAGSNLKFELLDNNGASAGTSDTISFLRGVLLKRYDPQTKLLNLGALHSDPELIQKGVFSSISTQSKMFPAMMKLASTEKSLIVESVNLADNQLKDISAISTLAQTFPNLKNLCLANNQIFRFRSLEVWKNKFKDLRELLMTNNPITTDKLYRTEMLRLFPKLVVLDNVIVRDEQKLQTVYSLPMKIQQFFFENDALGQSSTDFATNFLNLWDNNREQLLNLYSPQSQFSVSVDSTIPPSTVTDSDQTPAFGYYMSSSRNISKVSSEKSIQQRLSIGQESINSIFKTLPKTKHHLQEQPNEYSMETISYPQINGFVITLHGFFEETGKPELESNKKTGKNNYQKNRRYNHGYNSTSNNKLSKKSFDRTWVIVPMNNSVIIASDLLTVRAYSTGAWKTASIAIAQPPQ
T4 sequence 2: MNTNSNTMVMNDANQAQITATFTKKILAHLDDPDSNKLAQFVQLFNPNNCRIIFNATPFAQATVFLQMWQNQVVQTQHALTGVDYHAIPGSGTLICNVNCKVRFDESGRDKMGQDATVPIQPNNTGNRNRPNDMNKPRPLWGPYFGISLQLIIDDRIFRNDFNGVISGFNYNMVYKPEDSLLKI

[2] = biological target: T5, Mex67ΔUBA L263A+M265A;Mtr2 (Saccharomyces cerevisiae;Saccharomyces …, UniProt Q99257;P34232 1-487;1-184, L263A;M265A|); settings: protein: recombinant;recombinant; tags: His6 removed by TEV;; copies: 1;1
T5 sequence 1: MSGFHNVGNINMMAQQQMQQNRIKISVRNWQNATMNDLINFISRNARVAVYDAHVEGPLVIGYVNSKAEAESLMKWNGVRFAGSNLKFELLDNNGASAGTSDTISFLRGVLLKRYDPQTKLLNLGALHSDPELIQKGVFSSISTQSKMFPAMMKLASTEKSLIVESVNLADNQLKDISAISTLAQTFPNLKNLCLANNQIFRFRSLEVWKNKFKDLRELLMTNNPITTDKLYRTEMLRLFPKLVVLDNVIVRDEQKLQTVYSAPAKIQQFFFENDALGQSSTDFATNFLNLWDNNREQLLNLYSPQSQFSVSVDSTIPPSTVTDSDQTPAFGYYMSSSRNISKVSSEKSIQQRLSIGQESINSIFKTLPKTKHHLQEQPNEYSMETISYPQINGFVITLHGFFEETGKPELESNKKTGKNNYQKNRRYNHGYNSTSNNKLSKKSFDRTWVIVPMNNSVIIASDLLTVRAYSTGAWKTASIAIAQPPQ
T5 sequence 2: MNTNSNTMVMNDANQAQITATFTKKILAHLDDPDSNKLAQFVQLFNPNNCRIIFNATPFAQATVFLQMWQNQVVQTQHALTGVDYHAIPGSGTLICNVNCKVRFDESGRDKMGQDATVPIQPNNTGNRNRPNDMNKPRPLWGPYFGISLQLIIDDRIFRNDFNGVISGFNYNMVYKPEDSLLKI

[3] = biological target: T6, Mex67ΔUBA L263Y+M265Y;Mtr2 (Saccharomyces cerevisiae;Saccharomyces …, UniProt Q99257;P34232 1-487;1-184, L263Y;M265Y|); settings: protein: recombinant;recombinant; tags: His6 removed by TEV;; copies: 1;1
T6 sequence 1: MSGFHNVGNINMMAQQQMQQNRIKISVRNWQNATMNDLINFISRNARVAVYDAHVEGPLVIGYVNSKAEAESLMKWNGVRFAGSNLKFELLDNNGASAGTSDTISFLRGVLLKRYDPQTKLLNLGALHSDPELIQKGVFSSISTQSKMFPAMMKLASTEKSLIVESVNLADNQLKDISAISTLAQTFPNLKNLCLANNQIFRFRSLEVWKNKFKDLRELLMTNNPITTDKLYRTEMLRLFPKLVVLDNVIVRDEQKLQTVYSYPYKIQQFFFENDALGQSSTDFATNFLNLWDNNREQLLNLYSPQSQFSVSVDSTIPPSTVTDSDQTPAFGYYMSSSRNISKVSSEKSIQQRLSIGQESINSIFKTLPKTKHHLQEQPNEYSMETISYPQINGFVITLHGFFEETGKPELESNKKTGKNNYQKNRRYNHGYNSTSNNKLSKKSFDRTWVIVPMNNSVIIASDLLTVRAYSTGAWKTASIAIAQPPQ
T6 sequence 2: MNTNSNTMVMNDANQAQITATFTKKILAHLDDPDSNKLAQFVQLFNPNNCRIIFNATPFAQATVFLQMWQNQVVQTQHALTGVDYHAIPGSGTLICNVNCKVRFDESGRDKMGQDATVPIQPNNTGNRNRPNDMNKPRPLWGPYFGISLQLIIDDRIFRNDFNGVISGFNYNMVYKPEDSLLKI

[4] = biological target: T7, Mex67 (full length):Mtr2;Mtr2 (Saccharomyces cerevisiae;Saccharomyces …, UniProt Q99257;P34232 1-599;1-184, |); settings: protein: recombinant;recombinant, tags: His6 removed by TEV;, copies: 1;1
T7 sequence 1: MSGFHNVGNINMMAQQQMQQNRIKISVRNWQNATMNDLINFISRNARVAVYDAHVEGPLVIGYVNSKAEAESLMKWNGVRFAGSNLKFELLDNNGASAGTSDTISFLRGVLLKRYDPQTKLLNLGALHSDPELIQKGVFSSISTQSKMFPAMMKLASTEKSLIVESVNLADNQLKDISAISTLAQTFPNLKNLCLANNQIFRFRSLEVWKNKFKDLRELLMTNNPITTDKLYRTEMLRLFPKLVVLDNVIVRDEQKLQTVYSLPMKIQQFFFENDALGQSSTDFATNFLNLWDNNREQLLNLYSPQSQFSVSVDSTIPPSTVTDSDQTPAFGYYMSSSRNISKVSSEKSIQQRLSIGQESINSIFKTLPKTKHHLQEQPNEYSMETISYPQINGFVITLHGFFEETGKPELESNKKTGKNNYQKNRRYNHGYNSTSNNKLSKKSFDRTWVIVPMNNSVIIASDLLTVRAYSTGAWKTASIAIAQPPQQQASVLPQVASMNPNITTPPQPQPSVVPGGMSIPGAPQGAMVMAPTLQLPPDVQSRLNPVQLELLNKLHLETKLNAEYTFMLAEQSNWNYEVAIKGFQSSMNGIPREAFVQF
T7 sequence 2: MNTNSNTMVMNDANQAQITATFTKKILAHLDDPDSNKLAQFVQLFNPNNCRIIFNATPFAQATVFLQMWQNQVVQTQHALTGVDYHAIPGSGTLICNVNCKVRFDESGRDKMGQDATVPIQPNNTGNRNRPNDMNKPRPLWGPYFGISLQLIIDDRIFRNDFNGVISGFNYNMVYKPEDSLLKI

Mex67LRR-NTF2L;Mtr2 = biological target: T8, Mex67LRR-NTF2L;Mtr2 (Saccharomyces cerevisiae;Saccharomyces …, UniProt Q99257;P34232 101-487;1-184, |); settings: protein: recombinant;recombinant; tags: His6 removed by TEV;; copies: 1;1
T8 sequence 1: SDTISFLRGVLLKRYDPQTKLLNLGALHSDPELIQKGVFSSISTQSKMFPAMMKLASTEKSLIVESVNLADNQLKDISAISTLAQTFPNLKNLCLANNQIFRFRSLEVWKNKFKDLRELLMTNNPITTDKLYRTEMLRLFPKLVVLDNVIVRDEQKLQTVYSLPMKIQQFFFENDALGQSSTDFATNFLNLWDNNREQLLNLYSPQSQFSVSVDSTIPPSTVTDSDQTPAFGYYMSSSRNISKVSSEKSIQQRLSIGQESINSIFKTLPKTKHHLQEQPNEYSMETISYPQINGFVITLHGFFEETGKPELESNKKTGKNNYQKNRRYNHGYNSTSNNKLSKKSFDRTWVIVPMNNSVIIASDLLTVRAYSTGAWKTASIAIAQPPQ
T8 sequence 2: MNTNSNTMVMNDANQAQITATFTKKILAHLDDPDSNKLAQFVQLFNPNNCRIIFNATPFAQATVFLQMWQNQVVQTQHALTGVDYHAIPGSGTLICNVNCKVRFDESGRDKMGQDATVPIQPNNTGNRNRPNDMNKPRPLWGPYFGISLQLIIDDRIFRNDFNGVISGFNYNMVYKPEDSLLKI

AAAAAAAAAAAAAAA (ssRNA) [A15]
Kd (Mex67RRM-LRR): 12000 nM
Kd [1]: 820 nM
Kd (Mex67NTF2L;Mtr2): 860 nM
Kd (Mex67ΔUBA;Mtr2): 310 nM
Kd [2]: 640 nM
Kd [3]: 420 nM
Kd [4]: 260 nM
Kd (Mex67LRR-NTF2L;Mtr2): 340 nM

GGGGGGGGGGGGGGG (ssRNA) [G15]
binding result ([4]; may form higher order structure): binds
